The results in this text go back to patent US20110300138A1 (published 2011).

In assay [1] the target is TSHR260-AP (fusion protein consisting of a fragment of human TSHR, amino acids 22-260, with alkaline phosphatase) (human). Description: bridging ELISA: full length TSHR on wells, TSHR260-AP in liquid phase; IgG 0.01 µg/mL in HBD serum.
For assay [2] the target is unchanged. Description: bridging ELISA: full length TSHR on wells, TSHR260-AP in liquid phase; IgG 0.005 µg/mL in HBD serum. A general note: An ELISA detects its analyte on a solid surface through an enzyme-linked reagent.
Assay [3] has the same target. Description: bridging ELISA: full length TSHR on wells, TSHR260-AP in liquid phase; IgG 0.1 µg/mL in HBD serum.
Assay [4] shares this target. Put plainly: bridging ELISA: full length TSHR on wells, TSHR260-AP in liquid phase; IgG 0.5 µg/mL in HBD serum.
Assay [5] shares this target. The description is as above. This is another data set of the same source.
Assay [6] shares this target. Put plainly: bridging ELISA: full length TSHR on wells, TSHR260-AP in liquid phase; IgG 0.05 µg/mL in HBD serum.
For assay [7] the target is unchanged. Put plainly: bridging ELISA: full length TSHR on wells, TSHR260-AP in liquid phase; IgG 1 µg/mL in HBD serum.
Assay [8] shares this target. Description: bridging ELISA: full length TSHR on wells, TSHR260-AP in liquid phase; IgG 0.01 µg/mL in HBD serum. This is another data set of the same source.
The target is the same in assay [9]. Description: bridging ELISA: full length TSHR on wells, TSHR260-AP in liquid phase; IgG 0.005 µg/mL in HBD serum. The source holds these as a separate data set.
Assay [10] has the same target. Description: bridging ELISA: full length TSHR on wells, TSHR260-AP in liquid phase; IgG 10 µg/mL in HBD serum.
Assay [11] shares this target. Description: bridging ELISA: full length TSHR on wells, TSHR260-AP in liquid phase; IgG 1 µg/mL in HBD serum. The source holds these as a separate data set.
The target is the same in assay [12]. Description: bridging ELISA: full length TSHR on wells, TSHR260-AP in liquid phase; IgG 10 µg/mL in HBD serum. The source holds these as a separate data set.
Assay [13] has the same target. Description: bridging ELISA: full length TSHR on wells, TSHR260-AP in liquid phase; IgG 0.1 µg/mL in HBD serum. The source holds these as a separate data set.
Assay [14] has the same target. Description: bridging ELISA: full length TSHR on wells, TSHR260-AP in liquid phase; IgG 0.05 µg/mL in HBD serum. This is another data set of the same source.
Assay [15] deals with TSH receptor (TSHR), full length human, coated on tubes (human) (UniProt P16473). Put plainly: inhibition of 125I-TSH binding to TSHR coated tubes; 0.001 µg/mL, diluted in HBD serum pool.
For assay [16], the target named is TSHR260-alkaline phosphatase (TSHR260-AP) (human) (UniProt P05187). Put plainly: TSHR260-AP bridge ELISA, full length TSHR on wells; 0.1 µg/mL, diluted in HBD.
The target of assay [17] is human TSH receptor (full length), coated on tubes (human) (UniProt P16473). Description: inhibition of 125I-K1-70 Fab (competitor) binding to TSHR coated tubes; 0.03 µg/mL in HBD serum pool.
For assay [18], the target named is human thyroid stimulating hormone receptor (TSHR), full length (human) (UniProt P16473). Description: 125I-K1-18 Fab competition, TSHR coated tubes; 0.001 µg/mL in assay buffer.
The target is the same in assay [19]. Put plainly: 125I-K1-18 Fab competition, TSHR coated tubes; 0.01 µg/mL in HBD.
In assay [20] the target is TSHR260-alkaline phosphatase (TSHR260-AP) (human) (UniProt P05187). Description: TSHR260-AP bridge ELISA, full length TSHR on wells; 10 µg/mL, diluted in HBD.
Assay [21] shares this target. Put plainly: TSHR260-AP bridge ELISA, full length TSHR on wells; 0.005 µg/mL, diluted in HBD.
The target is the same in assay [22]. Description: TSHR260-AP bridge ELISA, full length TSHR on wells; 10 µg/mL, diluted in assay buffer.
Assay [23] shares this target. Put plainly: TSHR260-AP bridge ELISA, full length TSHR on wells; 0.005 µg/mL, diluted in assay buffer.
The target in assay [24] is human TSH receptor (full length), coated on tubes (human) (UniProt P16473). Put plainly: inhibition of 125I-K1-70 Fab (competitor) binding to TSHR coated tubes; 0.003 µg/mL in HBD serum pool.
The target of assay [25] is TSH receptor (TSHR) coated on tubes (human) (UniProt P16473). Put plainly: inhibition of 125I-K1-70 IgG binding to TSHR coated tubes; sample 0.01 µg/mL in HBD serum pool.
Assay [26] addresses TSHR260-alkaline phosphatase (TSHR260-AP) (human) (UniProt P05187). Description: TSHR260-AP bridge ELISA, full length TSHR on wells; 250 µg/mL, diluted in HBD.
Assay [27] shares this target. Put plainly: TSHR260-AP bridge ELISA, full length TSHR on wells; 0.1 µg/mL, diluted in assay buffer.
In assay [28] the target is TSH receptor (TSHR), full length human, coated on tubes (human) (UniProt P16473). Description: inhibition of 125I-TSH binding to TSHR coated tubes; 0.003 µg/mL, diluted in HBD serum pool.
Assay [29] has the same target. Description: binding of 125I-TSH to TSHR coated tubes, in assay buffer, no competitor.
Assay [30] concerns the target TSHR coated tubes (full length TSHR) (human) (UniProt P16473). Put plainly: 125I-TSH binding to TSHR coated tubes in assay buffer only (no competitor).
The target in assay [31] is TSH receptor (TSHR), full length human, coated on tubes (human) (UniProt P16473). Put plainly: binding of 125I-TSH to TSHR coated tubes, in assay buffer, no competitor. This is another data set of the same source.
Assay [32] shares this target. Put plainly: binding of 125I-TSH to TSHR coated tubes, in HBD serum pool, no competitor.
Assay [33] deals with TSH receptor (full length human TSHR) coated on tubes (human) (UniProt P16473). Description: 125I-TSH binding to TSHR coated tubes, in assay buffer, no inhibitor.
Assay [34] shares this target. Put plainly: 125I-TSH binding to TSHR coated tubes, in HBD serum pool, no inhibitor.
Assay [35] shares this target. Put plainly: 125I-TSH bound to TSHR coated tubes, in HBD pool serum.
Assay [36] has the same target. Description: 125I-TSH bound to TSHR coated tubes, in assay buffer.
The target of assay [37] is T1, human TSH receptor, full length, detergent-solubilised, coated on tubes or ELISA plate wells (human, UniProt P16473 22-764).
T1 construct: Full length recombinant receptor expressed in CHO cells, solubilised and coated via a C-terminal antibody; also called wild type TSHR; full length TSHR
Put plainly: TSHR binding affinity (summary table; Scatchard analysis, TSHR coated tubes).

On to “M22 IgG (human monoclonal thyroid stimulating autoantibody, hMAb TSHR1)”, for which the Mean absorbance at 405 nm (absorbance at 405 nm) came out at 0.064 in assay [1]; 0.032 in [2]; 0.599 in assay [3]; 1.09 in assay [4]; 1.02 in assay [5]; 0.332 in assay [6]. The Mean absorbance at 405 nm (absorbance at 405 nm) came out at 1.09 in assay [7]; 0.043 in assay [8]; 0.011 in [9]; 1.27 in [10]; 1.17 in [11]; 1.36 in assay [12]. The Mean absorbance at 405 nm (absorbance at 405 nm) in assay [13] was found to be 0.548; in assay [14], 0.292.
On to M22 Fab, for which the Inhibition of binding (%) was -11.2% in [15]; 66.8% in assay [17]; -0.7% in assay [18]; 20.4% in assay [19]; 11.5% in assay [24]; 34% in assay [25]. The Inhibition of binding (%) in assay [28] is -7.9%. Moreover, the Mean absorbance at 405 nm (absorbance at 405 nm) in assay [16] is -0.007; in assay [20], 0.01; in assay [21], -0.013; in assay [22], 0.034; in [23], -0.004; in assay [26], 0.031. For the same molecule, the Mean absorbance at 405 nm (absorbance at 405 nm) in assay [27] was found to be 0.015.
As to ^125I-TSH (ligand), the values for the ^125I-TSH binding (%) in [29], in assay [31] and in assay [32] were 13.4%, 11% and 11.5%, respectively. Further, the % of ^125I-TSH binding in [30] worked out at 12.4%. In addition, the % binding came to 10.8% in assay [33] and 12.4% in assay [34].
For the molecule 125I-TSH (ligand), the results for the 125I-TSH binding (%) in assay [35] and in assay [36] were 16% and 17.7%, respectively.

B1: K1-18 Fab (Fab, V domains shown)
VH: EVQLVQSGAEVKKPGESLKISCKGSGYSFTNYWIGWVRQMPGKGLEWMGIIYPYDSDTRYSPSFEGQVTISADKSIRTAYLHWSSLKASDTAMYYCVRPRDGSYPYDAFDIWGQGTMVTVSS
VL: EIVLTQSPGTLSLSPGERATLSCRASQSVSNNYLAWYQQKPGQAPRLLIYGASSRATGIPDRFSGSGSGTDFTLTISRLEPEDFAVYYCQHCGSSLRAFGQGTKVEIKR
notes: also called Fab of K1-18
As for B1, the Ka in assay [37] worked out at 1.3e+09 M⁻¹.
